Source: the RNAGym collection of RNA variant scans (doi:10.1073/pnas.2313332121)

B1: TPR t1 (parent)
chain: GACCAAUCUGCCCUCAGAGCUCGAGAACAUCUUCGGAUGCAGAGGAGGCAGGCUUCGGUGGCGCGAUAGCGCCAACGUCCUCAACCUCCAAUGCAUCCCACCACAUGAUGAUGCCUGAAGAGCCUUGGUUUUUUG

Variants of: B1
Test: polymerase ribozyme fitness, log enrichment relative to wild type (log ratio); higher = more active; in vitro selection for triplet polymerase activity
Summary of the method: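 Frozen incubation at −7 °C formed the core of a single, triplicate in vitro selection round applied to PCR-built, transcribed mutant libraries of each subunit of a heterodimeric triplet polymerase ribozyme. Extended constructs were gel-excised, captured with streptavidin beads and amplified by RT-PCR, and input and output libraries were Illumina-sequenced with a filter of ≥10 input reads and ≥1 read per output. Fitness is the logarithm of genotype enrichment relative to wild-type enrichment, with inverse-variance-weighted replicate averaging, and the logarithm is base 2.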
With C4U A27G the “polymerase ribozyme fitness (log ratio)” value was -2.96. For C4G C70G, the “polymerase ribozyme fitness (log ratio)” value was -3.78. For A5C C82A U126G, the “polymerase ribozyme fitness (log ratio)” value was -0.956. For A5G C40A G120U, the “polymerase ribozyme fitness (log ratio)” value was -0.337. For C4A G36U C70U, the “polymerase ribozyme fitness (log ratio)” value was -3.69. For A5G C82U C97U C124G U126A, the “polymerase ribozyme fitness (log ratio)” value was -0.153. With C4U A24U C70G U92G U116C G120C the “polymerase ribozyme fitness (log ratio)” value was -6.86. With C4G C22G G42A C53G the “polymerase ribozyme fitness (log ratio)” value was -4.26. For C4G A43U A46G G113A, the “polymerase ribozyme fitness (log ratio)” value was -3.76. With C4U A43U the “polymerase ribozyme fitness (log ratio)” value was -2.23. In the case of C4U C64A A68C C79A G120U, the “polymerase ribozyme fitness (log ratio)” value is reported as -6.51. In the case of A5C C53G U96A C123U, the “polymerase ribozyme fitness (log ratio)” value is reported as -0.893. In the case of C3U G69A, the “polymerase ribozyme fitness (log ratio)” value is reported as -2.67. With A5C C11G C79U G117C the “polymerase ribozyme fitness (log ratio)” value was -1.88. In the case of C4U C56A U130C, the “polymerase ribozyme fitness (log ratio)” value is reported as -0.451. In the case of A5G C40U G45U A50C U125A, the “polymerase ribozyme fitness (log ratio)” value is reported as -4.22. With A5C U87G C101U the “polymerase ribozyme fitness (log ratio)” value was -0.776. In the case of C4G C80U, the “polymerase ribozyme fitness (log ratio)” value is reported as -1.83. With C4U A90G the “polymerase ribozyme fitness (log ratio)” value was -0.325. For C4U U7G C11G C13A C56U U87A U112A, the “polymerase ribozyme fitness (log ratio)” value was 1.5. In the case of A5G C8U C34A C62U G117A, the “polymerase ribozyme fitness (log ratio)” value is reported as -5.35. For C4G U9A U112G G117U, the “polymerase ribozyme fitness (log ratio)” value was -2.18. For A5G C62U C88G U112C C123A C124A U130A, the “polymerase ribozyme fitness (log ratio)” value was 0.112. With A5C G63A C79U the “polymerase ribozyme fitness (log ratio)” value was -1.41. For A5G A91C, the “polymerase ribozyme fitness (log ratio)” value was -1.57. For C4U U7C A43U C70U C85A U92G G120C, the “polymerase ribozyme fitness (log ratio)” value was -5.06. For C4A C34A G71U, the “polymerase ribozyme fitness (log ratio)” value was -4.3. With C4U C62U C124G the “polymerase ribozyme fitness (log ratio)” value was 1.31. In the case of A5C A74G C85A C104U, the “polymerase ribozyme fitness (log ratio)” value is reported as -0.8. With C4G C8G C53A U112G G120A the “polymerase ribozyme fitness (log ratio)” value was -2.51. With A5C C82G U92G U130G the “polymerase ribozyme fitness (log ratio)” value was -4.87. With A5G A41G A50U C72U A75U G93A U112A G113C the “polymerase ribozyme fitness (log ratio)” value was -3.59. In the case of C4A A18G C40A C114A A119G, the “polymerase ribozyme fitness (log ratio)” value is reported as -3.79. With C4G G113U the “polymerase ribozyme fitness (log ratio)” value was -3.96. With A5C G71U the “polymerase ribozyme fitness (log ratio)” value was -0.21. In the case of C4A A121U U129G, the “polymerase ribozyme fitness (log ratio)” value is reported as 0.901. In the case of A5C C12A, the “polymerase ribozyme fitness (log ratio)” value is reported as -0.824. For C4G C12A U87G C115U, the “polymerase ribozyme fitness (log ratio)” value was -3.74. In the case of C4G C12U C97A U112C, the “polymerase ribozyme fitness (log ratio)” value is reported as -2.59. For C4U C49U C98U, the “polymerase ribozyme fitness (log ratio)” value was -2.14. For C3U U92C, the “polymerase ribozyme fitness (log ratio)” value was -1.23. With C3U G60A C82A U106A G120A the “polymerase ribozyme fitness (log ratio)” value was 0.775. For C4G A16C C82U G120C C124A, the “polymerase ribozyme fitness (log ratio)” value was -3.01. With A5G C12U G35A G71A U78A C85G C124A the “polymerase ribozyme fitness (log ratio)” value was -5.49. For C4U U92A, the “polymerase ribozyme fitness (log ratio)” value was -4.01. In the case of C4G C56A U59G C104U A111U C123U, the “polymerase ribozyme fitness (log ratio)” value is reported as -4.15. In the case of C4G G71U, the “polymerase ribozyme fitness (log ratio)” value is reported as -1.92. For C4A C80A C101U A121G, the “polymerase ribozyme fitness (log ratio)” value was -1.22. With C4A G110U the “polymerase ribozyme fitness (log ratio)” value was -3.24. With C4A A6C C11G C40U G110U the “polymerase ribozyme fitness (log ratio)” value was -4.57. With A5C C34A G42C C88U the “polymerase ribozyme fitness (log ratio)” value was -5.7. For C3U U9C C49A G69A C115A, the “polymerase ribozyme fitness (log ratio)” value was -0.734. For A5G C12A G45A U78C C88A, the “polymerase ribozyme fitness (log ratio)” value was -0.938. For C4U A41U G44A G45A C53U G63C, the “polymerase ribozyme fitness (log ratio)” value was -6.08. In the case of C4G A5C C82U U125A, the “polymerase ribozyme fitness (log ratio)” value is reported as -1.74. With C4U A41G the “polymerase ribozyme fitness (log ratio)” value was -0.698. For C4U C72A C85U C102U A121G U133A, the “polymerase ribozyme fitness (log ratio)” value was 0.405. For A5C C12G C114G, the “polymerase ribozyme fitness (log ratio)” value was -5.39. For C3U U9A C73A C79A U92G, the “polymerase ribozyme fitness (log ratio)” value was -3.38. With C4G A50U G61U the “polymerase ribozyme fitness (log ratio)” value was -2.2. For C4U C11U A37U G71C, the “polymerase ribozyme fitness (log ratio)” value was -1.4. For C4G G61U, the “polymerase ribozyme fitness (log ratio)” value was -1. With C4U A37U U38A A46G A50G the “polymerase ribozyme fitness (log ratio)” value was -2.72. For A5G A18U C28U, the “polymerase ribozyme fitness (log ratio)” value was -4.63. For A5G A18G G117U U125A, the “polymerase ribozyme fitness (log ratio)” value was -2.93. For A5C C56G, the “polymerase ribozyme fitness (log ratio)” value was -1.73. In the case of C3U U38G C62U G120A A121G G122A C123G U125C, the “polymerase ribozyme fitness (log ratio)” value is reported as -0.77. For C3U U87A A103C, the “polymerase ribozyme fitness (log ratio)” value was -5.54. For A5G C12A U38A G60A A121C G135U, the “polymerase ribozyme fitness (log ratio)” value was 0.199. With C4U C13G C15A G19A A90C C115U A119G the “polymerase ribozyme fitness (log ratio)” value was -5.79. For A5G C13A G48C C73A U112A G120C, the “polymerase ribozyme fitness (log ratio)” value was -0.914. For A5G C13A C53U U59G G69C, the “polymerase ribozyme fitness (log ratio)” value was -4.36. In the case of A5C C22U C89A A121G, the “polymerase ribozyme fitness (log ratio)” value is reported as -4.41. With C4U C8G U9C C11G C62G the “polymerase ribozyme fitness (log ratio)” value was -0.314. In the case of C4U C11A G51C, the “polymerase ribozyme fitness (log ratio)” value is reported as -4.83. For C4A A5C C13U G128C, the “polymerase ribozyme fitness (log ratio)” value was -1.73. With C4U U87A the “polymerase ribozyme fitness (log ratio)” value was -1.16. For C4U C11G U54A G63C C101A U112C, the “polymerase ribozyme fitness (log ratio)” value was 0.841. In the case of C4U A16U G42U U59G A84U, the “polymerase ribozyme fitness (log ratio)” value is reported as -4.24. With A5C U32C A41G G60A U78A U96A the “polymerase ribozyme fitness (log ratio)” value was -2.78. For C4U C8G C13A U21G G77U C82A A84U A121C, the “polymerase ribozyme fitness (log ratio)” value was -0.469. With A5G C11A C70G U81C the “polymerase ribozyme fitness (log ratio)” value was -4.45. With A5C A37C C70U G110U the “polymerase ribozyme fitness (log ratio)” value was -4.1. For C4U A46U A95C, the “polymerase ribozyme fitness (log ratio)” value was -2.04.
